In patent publication US8329178B2, “Antibodies against CXCR4 and methods of use thereof” (Dana-Farber Cancer Institute, Inc., dated 2012):

Biological target: CXCR2/CXCR4 chimera 4442 (human, UniProt P61073)
Experiment: FACS, 293T cells expressing CXCR4 variants

B1: 48-IgG1 (antibody, V domains shown)
VH: QVQLVQSGGGVVLPGRSLRLSCVASGFTFRRYGMHWVRQAPGKGLEWVSLISYDGSKTFYGESVKGRFTISRDNSKNTLYLQMNSLRAEDTAVYYCARATVTTDGYYYMDVWGKGTTVTVSS
VL: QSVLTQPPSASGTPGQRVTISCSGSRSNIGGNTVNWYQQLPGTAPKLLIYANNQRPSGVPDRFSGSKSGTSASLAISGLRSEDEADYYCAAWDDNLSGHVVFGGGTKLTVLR
For B1, the “binding to cells expressing the variant (+%)” value was 91.9%.

B2: 33-IgG1 (antibody, V domains shown)
VH: QVTLKESGGGVVQPGRSLRLSCAASGFTFTNYGLHWVRQAPGKGLEWVAVISHDGTKKYYADSVKGRFTISRDSSENTLYLQMNSLRPEDSALYYCARDGGYCSGGRCYSYGMDVWGQGTTVTVSS
VL: QSVLTQPPSASGTPGQRVTISCSGSRSNIGSNTVNWYQQLPGTAPKLLIYTNNQRPSGVPDRFSGSKSGTSASLAITGLQAEDEADYYCLSFDSSLTSYVFGTGTKVTVLG
With B2 the “binding to cells expressing the variant (+%)” value was 99.5%.
